Substrate: OC[C@H]1O[C@@](CO)(O[C@H]2O[C@H](CO)[C@@H](O)[C@H](O)[C@H]2O)[C@@H](O)[C@@H]1O
Test: initial rates, DNS reducing sugar assay, Michaelis-Menten fit
Format: biochemical, Priestia megaterium
Excerpt: initial rates, DNS reducing sugar assay, Michaelis-Menten fit on B. megaterium levansucrase

[1] = 50 mM Sörensen buffer pH 6.5, variant 1B1, global activity (hydrolysis and transfer)
[2] = 50 mM Sörensen buffer pH 6.5, variant 3C5, global activity (hydrolysis and transfer)

B1: B. megaterium levansucrase (Priestia megaterium DSM 319; K373H) (protein)
chain: KGNDSKDFNNSYGISHITRDNMVKIPQQQNSDQFKVPAFDESTIKNIASAKGKNASGNTIDLDVWDSWPLQNADGTVATYHGYQIVFALAGDPKDSNDTSVYLFYKKAGDKSIDSWKNAGRVFKDSDKFVPNDPHLKNQTQEWSGSGTLTKDGKVRLFYTDYSGKQYGKQTLTTAQVNMSQPNDNTLKVDGVEDYKSIFDGDGKIYQTVQQFIDEGGYDTGDNHTLRDPHYIEDNGHKYLVFEANTGTEDGYQGEDSLYNRAYYGGNNPFFQSEKKKLLEGSNKEKASLANGALGIIELNDDYTLKKVMKPLITSNTVTDEIERANIFKKDGKWYLFTDSRGSHMTIDGIGQDDVYMLGYVSNTLTGKYKPLNDTGLVLHMDLDPNDKTFTYSHFAVPQTKGDNVVITSYMTNRGFYEDNHSTFAPSFLVNIDGSKTSVVKDRVLEQGQLTVDED
notes: recombinant, E. coli BL21(DE3), pRSF-derived vector, purified from cleared lysate on CM sepharose
- Km [1]: 41.8 ± 6.6 mM
- kcat [1]: 198 ± 8.4 s⁻¹
- kcat/Km [1]: 4720 M⁻¹ s⁻¹

B2: B. megaterium levansucrase (Priestia megaterium DSM 319; K373L) (protein)
chain: KGNDSKDFNNSYGISHITRDNMVKIPQQQNSDQFKVPAFDESTIKNIASAKGKNASGNTIDLDVWDSWPLQNADGTVATYHGYQIVFALAGDPKDSNDTSVYLFYKKAGDKSIDSWKNAGRVFKDSDKFVPNDPHLKNQTQEWSGSGTLTKDGKVRLFYTDYSGKQYGKQTLTTAQVNMSQPNDNTLKVDGVEDYKSIFDGDGKIYQTVQQFIDEGGYDTGDNHTLRDPHYIEDNGHKYLVFEANTGTEDGYQGEDSLYNRAYYGGNNPFFQSEKKKLLEGSNKEKASLANGALGIIELNDDYTLKKVMKPLITSNTVTDEIERANIFKKDGKWYLFTDSRGSLMTIDGIGQDDVYMLGYVSNTLTGKYKPLNDTGLVLHMDLDPNDKTFTYSHFAVPQTKGDNVVITSYMTNRGFYEDNHSTFAPSFLVNIDGSKTSVVKDRVLEQGQLTVDED
notes: as for B1
- Km [2]: 12.5 ± 1.3 mM
- kcat [2]: 122 ± 2.3 s⁻¹
- kcat/Km [2]: 9800 M⁻¹ s⁻¹
